Data on six molecules can be found in paper PMC9636267 (2022).

Holding throughout (assay): SPR
The target of experiment [1] is T1, HCoV-229E S ectodomain (17–1115 aa), 229E S trimer (human coronavirus 229E, UniProt P15423 17-1115).
T1 chain: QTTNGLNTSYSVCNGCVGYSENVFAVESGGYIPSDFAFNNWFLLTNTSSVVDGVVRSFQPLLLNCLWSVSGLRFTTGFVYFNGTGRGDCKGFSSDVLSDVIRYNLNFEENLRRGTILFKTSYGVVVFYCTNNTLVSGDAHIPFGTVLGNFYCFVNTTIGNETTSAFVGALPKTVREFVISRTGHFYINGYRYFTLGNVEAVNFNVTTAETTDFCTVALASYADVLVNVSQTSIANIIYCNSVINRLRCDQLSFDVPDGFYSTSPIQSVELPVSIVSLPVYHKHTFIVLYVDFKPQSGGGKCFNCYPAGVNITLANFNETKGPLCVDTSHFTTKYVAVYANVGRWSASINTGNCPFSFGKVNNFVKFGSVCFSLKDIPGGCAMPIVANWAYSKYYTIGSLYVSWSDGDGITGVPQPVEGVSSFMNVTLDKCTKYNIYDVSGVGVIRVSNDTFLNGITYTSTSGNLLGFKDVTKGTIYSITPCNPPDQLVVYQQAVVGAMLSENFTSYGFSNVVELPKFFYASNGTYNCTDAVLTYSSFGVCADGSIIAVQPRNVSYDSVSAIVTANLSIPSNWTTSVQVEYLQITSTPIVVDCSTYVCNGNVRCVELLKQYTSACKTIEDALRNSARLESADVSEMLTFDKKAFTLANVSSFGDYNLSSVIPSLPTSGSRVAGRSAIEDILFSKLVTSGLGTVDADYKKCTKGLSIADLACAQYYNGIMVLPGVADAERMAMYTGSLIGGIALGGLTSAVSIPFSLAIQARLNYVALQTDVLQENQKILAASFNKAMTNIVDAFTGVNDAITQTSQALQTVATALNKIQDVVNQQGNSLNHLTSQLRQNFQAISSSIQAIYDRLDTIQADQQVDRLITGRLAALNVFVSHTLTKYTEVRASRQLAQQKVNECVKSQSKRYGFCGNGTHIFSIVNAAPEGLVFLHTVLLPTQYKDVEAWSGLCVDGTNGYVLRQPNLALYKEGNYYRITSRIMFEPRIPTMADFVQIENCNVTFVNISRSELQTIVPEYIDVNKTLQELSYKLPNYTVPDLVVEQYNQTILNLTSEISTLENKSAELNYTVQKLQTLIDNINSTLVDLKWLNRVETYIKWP

In experiment [2] the target is T1, HCoV-229E S ectodomain (17–1115 aa), ….
In experiment [3] the target is T2, HCoV-229E S1 subunit (17–560 aa) (human coronavirus 229E, UniProt P15423 17-560).
T2 chain: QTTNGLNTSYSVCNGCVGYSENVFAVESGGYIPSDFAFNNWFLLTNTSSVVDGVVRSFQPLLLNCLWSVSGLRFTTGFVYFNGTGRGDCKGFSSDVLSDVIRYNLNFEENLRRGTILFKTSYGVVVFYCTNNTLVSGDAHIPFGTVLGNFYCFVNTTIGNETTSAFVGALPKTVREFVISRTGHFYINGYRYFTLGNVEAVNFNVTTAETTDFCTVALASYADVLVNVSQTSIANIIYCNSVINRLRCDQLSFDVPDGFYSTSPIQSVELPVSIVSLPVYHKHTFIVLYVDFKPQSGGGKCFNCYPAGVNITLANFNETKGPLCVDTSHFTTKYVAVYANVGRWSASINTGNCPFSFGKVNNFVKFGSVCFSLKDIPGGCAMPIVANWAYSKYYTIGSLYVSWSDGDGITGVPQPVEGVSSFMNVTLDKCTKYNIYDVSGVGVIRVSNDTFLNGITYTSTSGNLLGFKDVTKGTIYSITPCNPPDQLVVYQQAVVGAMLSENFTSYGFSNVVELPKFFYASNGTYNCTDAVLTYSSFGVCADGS

In experiment [4] the target is T3, HCoV-229E NTD (17–265 aa) (human coronavirus 229E, UniProt P15423 17-265).
T3 chain: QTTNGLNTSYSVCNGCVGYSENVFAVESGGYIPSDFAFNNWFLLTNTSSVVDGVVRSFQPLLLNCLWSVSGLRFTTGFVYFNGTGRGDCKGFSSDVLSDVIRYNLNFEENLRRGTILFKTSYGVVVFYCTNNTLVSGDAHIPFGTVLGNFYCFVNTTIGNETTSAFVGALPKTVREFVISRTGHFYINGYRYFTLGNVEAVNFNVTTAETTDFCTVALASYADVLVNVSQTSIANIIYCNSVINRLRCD

The target in experiment [5] is T2, HCoV-229E S1 subunit (17–560 aa).
The target of experiment [6] is T3, HCoV-229E NTD (17–265 aa).

B1: Fab B09 (Fab, V domains shown)
VH: EVQLVESGGGLVQPGGSLRLSCAASGFNLSYSSIHWVRQAPGKGLEWVAYIYPYYGSTYYADSVKGRFTISADTSKNTAYLQMNSLRAEDTAVYYCARSWSPSSSYPGYGGLDYWGQGTLVTVSS
VL: DIQMTQSPSSLSASVGDRVTITCRASQSVSSAVAWYQQKPGKAPKLLIYSASSLYSGVPSRFSGSRSGTDFTLTISSLQPEDFATYYCQQSWSYYGSLFTFGQGTKVEIK
The koff is the rate constant with which the complex falls apart. As a reminder, the Kd is a measure of binding affinity in units of concentration. A lower Kd goes with tighter binding. Turning to B1, the koff in experiment [1] is 0.00015 s⁻¹; in experiment [5] it was 0.00064 s⁻¹; in experiment [6] it was 0.00037 s⁻¹. Moreover, the Kd in experiment [2] was 33 nM; in experiment [3] it was 32 nM; in experiment [4], 235 nM.

B2: Fab A01 (Fab, V domains shown)
VH: EVQLVESGGGLVQPGGSLRLSCAASGFNISSSYIHWVRQAPGKGLEWVASIYSYYSSTSYADSVKGRFTISADTSKNTAYLQMNSLRAEDTAVYYCARGGYAFYGYGSPHSWYALDYWGQGTLVTVSS
VL: DIQMTQSPSSLSASVGDRVTITCRASQSVSSAVAWYQQKPGKAPKLLIYSASSLYSGVPSRFSGSRSGTDFTLTISSLQPEDFATYYCQQWWPGSWGPITFGQGTKVEIK
Regarding B2, the koff in experiment [1] turned out to be 0.0017 s⁻¹; in experiment [5] it was 0.00068 s⁻¹; in experiment [6] it was 0.00076 s⁻¹. The Kd was found to be 32 nM in experiment [2], 17 nM in experiment [3] and 31 nM in experiment [4].

B3: Fab B10 (Fab, V domains shown)
VH: EVQLVESGGGLVQPGGSLRLSCAASGFNLSSSSMHWVRQAPGKGLEWVAYIYPSYSSTYYADSVKGRFTISADTSKNTAYLQMNSLRAEDTAVYYCARASGHFWAYGFDYWGQGTLVTVSS
VL: DIQMTQSPSSLSASVGDRVTITCRASQSVSSAVAWYQQKPGKAPKLLIYSASSLYSGVPSRFSGSRSGTDFTLTISSLQPEDFATYYCQQYSYSGPFTFGQGTKVEIK
As to B3, the koff in experiment [1] turned out to be 0.00044 s⁻¹; in experiment [5] it was 0.00031 s⁻¹; in experiment [6] it was 0.00069 s⁻¹. The dissociation constant Kd in experiment [2] is 2.5 nM; in experiment [3], 2.3 nM; in experiment [4], 5.5 nM.

B4: Fab D04 (Fab, V domains shown)
VH: EVQLVESGGGLVQPGGSLRLSCAASGFNLSSYYIHWVRQAPGKGLEWVASISPYSSSTYYADSVKGRFTISADTSKNTAYLQMNSLRAEDTAVYYCARWYSPSYGWYWPYASGAGGLDYWGQGTLVTVSS
VL: DIQMTQSPSSLSASVGDRVTITCRASQSVSSAVAWYQQKPGKAPKLLIYSASSLYSGVPSRFSGSRSGTDFTLTISSLQPEDFATYYCQQSSPHYLITFGQGTKVEIK
With B4, the koff in experiment [1] was 0.0012 s⁻¹; in experiment [5], 0.0012 s⁻¹; in experiment [6], 0.0026 s⁻¹. Also, the dissociation constant (Kd) turned out to be 2 nM in experiment [2], 2 nM in experiment [3] and 7.7 nM in experiment [4].

B5: Fab A11 (Fab, V domains shown)
VH: EVQLVESGGGLVQPGGSLRLSCAASGFNIYSSYIHWVRQAPGKGLEWVASISSSYGYTYYADSVKGRFTISADTSKNTAYLQMNSLRAEDTAVYYCARGHGWAYVWSSYYPAGAFALDYWGQGTLVTVSS
VL: DIQMTQSPSSLSASVGDRVTITCRASQSVSSAVAWYQQKPGKAPKLLIYSASSLYSGVPSRFSGSRSGTDFTLTISSLQPEDFATYYCQQSYALITFGQGTKVEIK
In the case of B5, the values for the off-rate (koff) in experiment [1], in experiment [5] and in experiment [6] were 0.0034 s⁻¹, 0.0018 s⁻¹ and 0.004 s⁻¹, respectively. Moreover, the equilibrium dissociation constant (Kd) in experiment [2] was determined as 9.4 nM; in experiment [3], 3.2 nM; in experiment [4], 8.8 nM.

B6: Fab A10 (Fab, V domains shown)
VH: EVQLVESGGGLVQPGGSLRLSCAASGFNISSYYMHWVRQAPGKGLEWVAYISPYSGYTYYADSVKGRFTISADTSKNTAYLQMNSLRAEDTAVYYCARAHYPYHGSYWGLDYWGQGTLVTVSS
VL: DIQMTQSPSSLSASVGDRVTITCRASQSVSSAVAWYQQKPGKAPKLLIYSASSLYSGVPSRFSGSRSGTDFTLTISSLQPEDFATYYCQQAGYVPITFGQGTKVEIK
As to B6, the koff in experiment [1] was 0.00021 s⁻¹; in experiment [5] it was 0.00083 s⁻¹; in experiment [6] it was 0.0015 s⁻¹. The Kd came out at 6.3 nM in experiment [2], 3.6 nM in experiment [3] and 4.6 nM in experiment [4].
